Measured values as given in US20060183664A1, “Pharmaceutical composition for delayed hypersensitivity” (priority 2001, published 2006).

Target: T1, PAR-2 (Homo sapiens, UniProt P55085)
T1 construct: expressed in transfected cells; host or cells: NCTC2544 cells
T1 sequence (P55085 26-397): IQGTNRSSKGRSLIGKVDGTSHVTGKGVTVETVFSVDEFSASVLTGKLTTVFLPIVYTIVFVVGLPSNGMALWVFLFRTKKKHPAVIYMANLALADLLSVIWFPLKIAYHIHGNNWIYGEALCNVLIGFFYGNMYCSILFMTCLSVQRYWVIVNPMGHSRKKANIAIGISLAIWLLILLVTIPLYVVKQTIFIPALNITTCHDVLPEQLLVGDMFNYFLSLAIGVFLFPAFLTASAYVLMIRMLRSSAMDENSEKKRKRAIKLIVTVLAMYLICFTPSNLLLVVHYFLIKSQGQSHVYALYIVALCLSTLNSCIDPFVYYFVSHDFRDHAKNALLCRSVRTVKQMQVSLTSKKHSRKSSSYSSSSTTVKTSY
Test: Assay of PAR-2 activation using inositol phosphates as an indicator in NCTC2544 cells with stably high expression of PAR-2
Assay type: cell-based
Conditions: subject substance added 15 min before stimulation
Text: The invention also provides a novel method for measuring PAR-2 activity. PAR-2 belongs to G-protein-coupled receptor (GPCR) family, and produces inositol phosphates as a second messenger upon activation of the receptor. Based on this mechanism, the effects of subject substances in activation of PAR-2 can be determined quantitatively by quantifying produced inositol phosphates in PAR2-expressing cells by an ion chromatography or the like.
NCTC2544 cells with stably high expression of PAR-2 were cultured in the serum-free medium containing […]/ml of [^3H]-myo-inositol for 18 hours. Lithium chloride (final […]) was added 30 min before the stimulation, and subsequently cells were stimulated with trypsin (1 to 30 nM) or the PAR-2 agonist peptide, SLIGKV (10 to 300 μM). After 45 min the lipid component was extracted with methanol and separated using an anion exchanging resin (AG1-X, formate form). Then the yield of inositol phosphates was determined in a scintillation counter. The subject substance was added 15 min before the stimulation.

B1: trypsin inhibitor derived from soybeans: a trypsin inhibitor derived from soybeans, used as subject substance in the PAR-2 inositol phosphate assay (protein, UniProt P01070 25-205, looked up)
Trypsin inhibitor A: DFVLDNEGNPLENGGTYYILSDITAFGGIRAAPTGNERCPLTVVQSRNELDKGIGTIISSPYRIRFIAEGHPLSLKFDSFAVIMLCVGIPTEWSVVEDLPEGPAVKIGENKDAMDGWFRLERVSDDEFNNYKLVFCPQQAEDDKCGDIGISIDHDDGTRRLVVSKNKPLVVQFQKLDKESL
SLIGKV-mediated activation of PAR-2 (inositol phosphate production) (stimulation with PAR-2 activating peptide SLIGKV): not affected | Trypsin-mediated activation of PAR-2 (inositol phosphate production) (stimulation with trypsin): inhibited
